According to the supplement of paper PMC9170038:

System: MS2 coat protein
Experiment: apparent KD of MS2 coat protein; designed switch direction (-1 OFF switch, 1 ON switch): -1; higher = weaker reporter binding
In short: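 An oligonucleotide input, 200 uM small-molecule ligand, or no input was present during titration of SNAP-549-labelled MS2 coat protein, which was doubled from 0.7 or 1.5 nM to 3 µM. Designed RNA switches had been transcribed on Illumina chips by stalled E. coli RNA polymerase. Apparent KD per design is the median over clusters of curves fitted to normalised cluster fluorescence.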

[1] = input ligand: microRNA oligo, concentration not stated
[2] = Eterna round: R95, input ligand: microRNA oligo, concentration not stated
[3] = Eterna round: R95, input ligand: FMN 200 uM
[4] = Eterna round: R95, input ligand: none

Sequence	apparent KD of MS2 coat protein (input ligand: FMN 200 uM)	apparent KD of MS2 coat protein (input ligand: none)	apparent KD of MS2 coat protein [1]	apparent KD of MS2 coat protein [2]	apparent KD of MS2 coat protein [3]	apparent KD of MS2 coat protein [4]
UCAAGUUUUUAGAUUCUUAACAUGAGGAUCACCCAUGUGCUCGUCUUGUUGUACUAUCACUCGAAAGUGAUAGUACA (Eterna round: R97, puzzle: Sensor, turn-off variant 1)	43.5 nM	46.4 nM				
CUUGAGCAGGUAGGAUAUACGAAGUGUCGGCGAGUAGAAGGACCUGCGAUCCACUUGAGGAUCACCCAAGUUCGCAGGAGAACA [Mutated MS2 EX1.1] (Eterna round: R96, puzzle: Exclusion NG 1)	241 nM	61.3 nM	32.4 nM			
AGUAACCGUCACGAAAGUGAUGGUUACACAAGCAAAUGUACAUGAGGAUCACCCAUGUCCUCAUUUGUUCGUCUUAU [Sensor 3 - 47] (Eterna round: R96, puzzle: Sensor v3, turn-off variant 2)	101 nM	104 nM	305 nM			
CUGAGCUGACGGAGAUCCAACAUGAGGAUCACCCAUGUCUCAAAAGCUUUUUGCUCGUCUUAUCCUCCUCAGUUCAC [Mat - Sensor, turn-off var - Eli Mod - D55] (Eterna round: R97, puzzle: Sensor, turn-off variant 1)	26.5 nM	22.6 nM				
AUACCACGAGGAUAUCGACUAUACCACAUGAGGAUCACCCAUGUUAUCCAUGUUUCGUUUCGAGAAGGCGUGGGUU [JR_E5_Sub073] (puzzle: Exclusion 5)				32.3 nM		
AUGUGACAUGAGGAUCACCCAUGUCAGGAUAUUUCCAAAAUAAAAUAAAACCGCGUGGAAAGAAGGGACGUGGU [EX1 A.8] (Eterna round: R97, puzzle: Exclusion 1)	23.4 nM	21.7 nM				
UAUGGUUAAGUCAGGAUAUACAAACAGAAAUCUGAGUAGAAGGGACAUGAGGAUCACCCAUGUAUGGUAGUGUU [Ex4 #56] (Eterna round: R97, puzzle: Brourd's mod of Exclusion 4)	48.6 nM	44.6 nM				
GAGUGACAUGAGGAUCACCCAUGUGAGGAUAUCGGCCGGACCUUGUUAGCUUCCGCCGCGAGAAGGCACAUCGG [Exclusion 1 V28] (puzzle: Exclusion 1)				55.9 nM		
AGCUAGUCAGGAUAUUCUAAUAAUUACAUGAGGAUCACCCAUGUGAAGGGACAAGGGUGUGAAGAAGGGACUAGCG [Omei Ex5 A3] (Eterna round: R97, puzzle: Exclusion 5)	358 nM	529 nM				
GUCGUACAUGAGGAUCACCCAUGUGAGGAUAUGAGUGGUGCUGCUAGGUAGUAUAGACUCAGAAGGCGCAUGAU [Malcxlusion 2 - Jieux - Exclusion 1] (Eterna round: R97, puzzle: Exclusion 1)	250 nM	91.5 nM				
GAAAAGGUAGGAUAUCGAGACCAUAACAUGAGGAUCACCCAUGUGAUACCUACAGUGGUCCGAGAAGGACCAUAUA [Iserdianqu] (puzzle: Exclusion 5)				20.4 nM	62.1 nM	19.3 nM
GGUCGUAUGAGUAGUCCUCAUUGAAGAGAUUGGUAAGAUACAUGAGGAUCACCCAUGUUUGAACAAGCUUUUGCUCU [JR_Sv3TOV2_Sub008] (Eterna round: R96, puzzle: Sensor v3, turn-off variant 2)	159 nM	118 nM	54.3 nM			
AACCUAAGGCAUAGCUUUAGGUUUACAUGAGGAUCACCCAUGUAGGAUAUGGUAGGCAUAGCUUACCAGAAGGACAUGAAAAUU [Mat - Exclusion NG 3 - Mod of JL - D31] (Eterna round: R96, puzzle: Exclusion NG 3)	240 nM	46.1 nM	46.8 nM			
GGCGGACAUGAGGAUCACCCAUGUUAGGAUAUGGUGCGAUCGUCGAUAGACGAUAGCACCAGAAGGGACACGCC [Mat - Exclusion 1 - Eli Mod - D2] (Eterna round: R97, puzzle: Exclusion 1)	16.6 nM	16.9 nM				
AGUAACCGUCACGAAAGUGAUGGUUACACAAGCAAAUGUACAUGAGGAUCACCCAUGUCCUCAUUUGUUCGUCUUAU [Sensor 3 - 47] (puzzle: Sensor v3, turn-off variant 2)				390 nM	83.5 nM	87.5 nM
AAUAAGGGAGGAUAUACAUGAGGAUCACCCAUGUUUGUAAUUUAAUUCGGGAGUAUUAGUAGAAGGCCCAAUAA [lam1] (Eterna round: R97, puzzle: Exclusion 3)	278 nM	59.5 nM				
GUGGUACAUGAGGAUCACCCAUGUUAGGAUAUCGCGUGAGGUAAAACUUACACACACACGAGAAGGGACGACAU (puzzle: Exclusion 1)				64.4 nM		
UUACUAUGCCGCCUAAUAGCUUUUUGCUCGUCUUAUAUUACAUGAGGAUCACCCAUGUAGAUCAUGUGGCGUGACCU [JL ViennaUCT Maridi mod 3] (puzzle: Sensor v3, turn-off variant 2)				42 nM	216 nM	206 nM

Sequence	apparent KD of MS2 coat protein (input ligand: FMN 200 uM)	apparent KD of MS2 coat protein (input ligand: none)	apparent KD of MS2 coat protein [1]	apparent KD of MS2 coat protein [2]	apparent KD of MS2 coat protein [3]	apparent KD of MS2 coat protein [4]
AGUACUAACACGGUUGUGUUAGUACAAUAAGCUUGUGAAACAUGAGGAUCACCCAUGUCCUCAUAAGCUCGUCUUAU [salish99_TOv2_r3_070] (puzzle: Sensor v3, turn-off variant 2)				954 nM	16.1 nM	15.1 nM
CUGAUGUGAGGAUAUCUACGCCAAGUGUUUCACUUGGCGCAAGAGAAGGCACAUGAGGAUCACCCAUGUACUUC [jl-ex4-4.37 ViennaUCT mod] (Eterna round: R97, puzzle: Exclusion 4)	137 nM	22.8 nM				
CGGGUGAUAGGAUAUGACCAAGGUGACAUGAGGAUCACCCAUGUGAUCGUCGUAGACCUGUCAGAAGGGUUCCCGA [Bivevebe] (Eterna round: R97, puzzle: Exclusion 5)	78.7 nM	34.9 nM				
AGUAGUUCAGGAUAUGAUGUUGAGUACAUGAGGAUCACCCAUGUAGGUCCUGGAUUUGCAUCAGAAGGGAAUAACU [JR_Ex5_Sub084] (Eterna round: R97, puzzle: Exclusion 5)	59 nM	26.7 nM				
GGUACUCAAAGAGUACCAAUACGAACAUGAGGAUCACCCAUGUAGGAUAUGCUACUCAAAGAGUAGCAGAAGGAUAUGAUGAAU [Far Half Aptamer v16] (Eterna round: R96, puzzle: Exclusion NG 3)	41.1 nM	40.2 nM	30.8 nM			
UUGGAUGUUGAGGAUAUGCUUUUUUUUAUUAUAGCAGAAGGCGAUACAUGAGGAUCACCCAUGUUCAUGGCUUU [JR_E6_Sub099] (puzzle: Exclusion 6)				13.7 nM	14.5 nM	14.6 nM
GGGUGACAUGAGGAUCACCCAUGUCAGGAUAUGAUUCUGCUUGCGAAAGCGAGUAGAAUCAGAAGGGACAUCCC (Eterna round: R97, puzzle: Exclusion 1)	293 nM	65.2 nM				
CCCUUGUGAGGAUAUUUUUAAAAUGCUAACCACAAUUUUAUGAAGAAGGUACAUGAGGAUCACCCAUGUUUCUC [Tried to obey the law of the pack] (Eterna round: R97, puzzle: Exclusion 4)	20 nM	21 nM				
CUGGUGUGAGGAUAUCAGGACACGUACGCGGGCAUGUCAAAUGAGAAGGCACAUGAGGAUCACCCAUGUGGGAC [Geve] (puzzle: Exclusion 4)				26 nM		
GAUUAACAUGAGGAUCACCCAUGUGAGGAUAUGGAAUGGCUCAUUGUCUGAUUUCCUUCUAGAAGGCACAUCUU [1986#4c] (Eterna round: R97, puzzle: Exclusion 1)	72.2 nM	63.3 nM				
AAGCCACAUGAGGAUCACCCAUGUCAGGAUAUCUCGAAAAGCAUAGAAAUAUGCGAAGAGAGAAGGGACUACUC [ChP Ext 10-04-2015 #4] (puzzle: Exclusion 1)				42.7 nM		
UUUAGUUCAGGAUAUGAUGAAUUAAACAUGAGGAUCACCCAUGUAGAUCCUGAAUUAACAUCAGAAGGGAAUAUUU [JL-ex5-4.47 Brourd mod] (Eterna round: R97, puzzle: Exclusion 5)	15.1 nM	13.7 nM				
CUCAAGUUAGGAUAUCCAAACGACACGUGCGGACGUUCAACGGAGAAGGGACUUGAGGAUCACCCAAGUUAAAA [Riusbireis] (Eterna round: R97, puzzle: Exclusion 4)	137 nM	45 nM				
CGUCCUCUAGUUAGGAUAUUGUCUCGGAUACGAAACAAGAAGGGACAUGAGGAUCACCCAUGUAAUGAGGACGA [Malc #30 mod 16] (puzzle: Brourd's mod of Exclusion 4)				27.3 nM		
UGCAGACGAGGAUAUGAUAAUUAAUACAUGAGGAUCACCCAUGUAAUACUGAUCCAUGGAUCAGAAGGCGUCUGCU [E5/4-A3] (Eterna round: R97, puzzle: Exclusion 5)	20.2 nM	13.7 nM				
CUAUGUGCGAGAGGAUAUCGUGUACAAAGUACACGAGAAGGCUUCACAUGAGGAUCACCCAUGUACCGAGGUGAAACACCUUGA [Omei Exc(NG)1 Bv6] (Eterna round: R96, puzzle: Exclusion NG 1)	744 nM	510 nM	261 nM			
CCACGACAUGAGGAUCACCCAUGUGAGGAUAUGGCCUGAAAAGCGUGAGCAGUAUCAAUCAGAAGGCGCGUGGG [salish99_ex1_r4_061] (Eterna round: R97, puzzle: Exclusion 1)	116 nM	76.4 nM				
